Source: PMC11928764
Where two headings read alike, the source gives them in different places.

Columns and labels:
[1] = molecular target: eSALO-E58A (Lutzomyia longipalpis); assay: SPR; biotinylated eSALO-WT or mutants captured on streptavidin (50-73 RU); single-cycle kinetics, C1r proenzyme 25-400 nM, zC1r-12SP 6.25-100 nM; 25 °C, HBS-T; two-state binding model, apparent KD; mean ± SD of three injections
[2] = molecular target: eSALO-WT (SALO, salivary anticomplement from Lutzomyia longipalpis, expressed by HEK293(T) cells) (Lutzomyia longipalpis) (UniProt Q5WPZ4); assay: as above
[3] = molecular target: eSALO-Y51F (Lutzomyia longipalpis); assay: as above
[4] = molecular target: eSALO-WT (SALO, salivary anticomplement from Lutzomyia longipalpis, expressed by HEK293(T) cells) (Lutzomyia longipalpis) (UniProt Q5WPZ4); assay: SPR; biotinylated eSALO-WT captured on streptavidin (97 RU); single-cycle kinetics, C1r proenzyme 25-400 nM, zC1r-12SP 6.25-100 nM; 25 °C, HBS-T; two-state kinetic model, apparent KD
[5] = molecular target: T1, C1r proenzyme (zymogen of complement protease C1r) (human)
T1 sequence (P00736 18-705, looked up): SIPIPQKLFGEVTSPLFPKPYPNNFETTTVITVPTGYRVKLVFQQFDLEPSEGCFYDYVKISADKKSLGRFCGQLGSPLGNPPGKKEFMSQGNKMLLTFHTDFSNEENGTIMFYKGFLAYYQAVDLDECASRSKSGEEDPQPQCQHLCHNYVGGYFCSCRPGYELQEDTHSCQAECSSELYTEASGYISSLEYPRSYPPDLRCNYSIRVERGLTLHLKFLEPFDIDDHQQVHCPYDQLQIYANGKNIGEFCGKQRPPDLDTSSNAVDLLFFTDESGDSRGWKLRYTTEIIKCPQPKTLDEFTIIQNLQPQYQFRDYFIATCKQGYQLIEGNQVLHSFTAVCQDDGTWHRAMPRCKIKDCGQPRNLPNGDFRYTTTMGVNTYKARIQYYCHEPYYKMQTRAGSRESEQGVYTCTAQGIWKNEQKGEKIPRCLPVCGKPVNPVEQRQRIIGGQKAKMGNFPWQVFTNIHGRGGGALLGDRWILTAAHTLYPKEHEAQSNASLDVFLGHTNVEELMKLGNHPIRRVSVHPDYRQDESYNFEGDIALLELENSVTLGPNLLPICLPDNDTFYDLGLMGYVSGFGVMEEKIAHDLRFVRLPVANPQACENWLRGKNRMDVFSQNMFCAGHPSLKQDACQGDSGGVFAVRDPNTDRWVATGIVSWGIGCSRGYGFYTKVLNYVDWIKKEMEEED

[6] = molecular target: eSALO-WT (SALO, salivary anticomplement from Lutzomyia longipalpis, expressed by HEK293(T) cells) (Lutzomyia longipalpis) (UniProt Q5WPZ4); assay: SPR; eSALO-WT amine-coupled to a CMD200M chip (720 RU); analytes injected as two-fold series (15.6-1000 nM; 1.56-100 nM for C1 and C1r proenzyme); 25 °C, HBS-T (20 mM Hepes pH 7.4, 140 mM NaCl, 0.005% Tween-20); 1:1 model, apparent KD
[7] = molecular target: T1, C1r proenzyme (zymogen of complement protease C1r) (human); remark: listed apart in the source

zC1r-12SP (fragment of human C1r with its two CCP repeats and serine protease domain, S654A, zymogen-like) (domain or fragment)
Ka-1 (two-state model, first step, association) [1]: 260000 M⁻¹ s⁻¹ | Ka-2 (two-state model, second step, forward) [1]: 0.0018 s⁻¹ | Kd [1]: 2.5 nM | Kd-1 (two-state model, first step, dissociation) [1]: 0.0034 s⁻¹ | Kd-2 (two-state model, second step, reverse) [1]: 0.00041 s⁻¹ | Ka-1 (two-state model, first step, association) [2]: 370000 M⁻¹ s⁻¹ | Ka-2 (two-state model, second step, forward) [2]: 0.0024 s⁻¹ | Kd [2]: 1.1 nM | Kd-1 (two-state model, first step, dissociation) [2]: 0.0038 s⁻¹ | Kd-2 (two-state model, second step, reverse) [2]: 0.00028 s⁻¹ | Ka-1 (two-state model, first step, association) [3]: 280000 M⁻¹ s⁻¹ | Ka-2 (two-state model, second step, forward) [3]: 0.0017 s⁻¹ | Kd [3]: 9 nM | Kd-1 (two-state model, first step, dissociation) [3]: 0.008 s⁻¹ | Kd-2 (two-state model, second step, reverse) [3]: 0.00077 s⁻¹ | Kd [4]: 0.7 nM

eSALO-Y51F (natural protein)
IC50 of inhibition of classical-pathway hemolysis (antibody-sensitized sheep erythrocytes, 0.5% NHS) [5]: 14500 nM

C1r proenzyme (zymogen of complement protease C1r)
Kd [6]: 8.5 nM | Ka-1 (two-state model, first step, association) [1]: 50000 M⁻¹ s⁻¹ | Ka-2 (two-state model, second step, forward) [1]: 0.0023 s⁻¹ | Kd [1]: 10.3 nM | Kd-1 (two-state model, first step, dissociation) [1]: 0.0027 s⁻¹ | Kd-2 (two-state model, second step, reverse) [1]: 0.00037 s⁻¹ | Ka-1 (two-state model, first step, association) [2]: 30000 M⁻¹ s⁻¹ | Ka-2 (two-state model, second step, forward) [2]: 0.003 s⁻¹ | Kd [2]: 5.6 nM | Kd-1 (two-state model, first step, dissociation) [2]: 0.0022 s⁻¹ | Kd-2 (two-state model, second step, reverse) [2]: 0.00027 s⁻¹ | Ka-1 (two-state model, first step, association) [3]: 370000 M⁻¹ s⁻¹ | Ka-2 (two-state model, second step, forward) [3]: 0.0008 s⁻¹ | Kd [3]: 41.9 nM | Kd-1 (two-state model, first step, dissociation) [3]: 0.0183 s⁻¹ | Kd-2 (two-state model, second step, reverse) [3]: 0.00069 s⁻¹ | Kd [4]: 11.1 nM

Native C1 complex (first component of complement) (from UniProt P02745 23-245; P02746 28-253; P02747 29-245)
Kd [6]: 0.8 nM

eSALO-E58A (natural protein)
IC50 of inhibition of classical-pathway hemolysis (antibody-sensitized sheep erythrocytes, 0.5% NHS) [5]: 1200 nM

B1: eSALO-WT (SALO, salivary anticomplement from Lutzomyia longipalpis, expressed by HEK293(T) cells) (natural protein)
chain: SEDCENIFHDNAYLLKLDCEAGRVDPVEYDDISDEEIYEITVDVGVSSEDQEKVAKIIRECIAQVSTQDCTKFSEIYDCYMKKKICNYYPENM
modifications: sulfotyrosine at Y51 (X51; extent of sulfation not known); biotin (NHS-PEG4-biotin) where surface-captured in SPR
IC50 of inhibition of classical-pathway hemolysis (antibody-sensitized sheep erythrocytes, 0.5% NHS) [5]: 84.9 nM

B2: rSALO-WT (SALO expressed in Escherichia coli and refolded) (natural protein)
chain: B1 chain
IC50 of inhibition of classical-pathway hemolysis (antibody-sensitized sheep erythrocytes, 0.5% NHS) [7]: 16000 nM
